According to patent publication US20170015742A1 (published 2017):
Numbering of substitutions follows the chain as printed.

B1: chBDI-9E8 half-body (antibody, V domains shown)
VH: QVTLKESGPGILQPSQTLSLTCTFSGFSLSTYGMGVGWIRQPSGKGLEWLANIWWDDDKYYNPSLKNRLTISKDTSNNQAFLKITNVDTADTATYYCARIESIGTTYSFDYWGQGVMVTVSS
VL: QFTLTQPKSVSGSLRSTITIPCERSSGDIGDSYVSWYQQHLGRPPINVIYADDQRPSEVSDRFSGSIDSSSNSASLTITNLQMDDEADYFCQSYDINIDIVFGGGTKLTVL
B2: chBDI-5H1 half-body (antibody, V domains shown)
VH: QVTLKESGPGILQPSQTLSLTCTFSGFSLSTFGMGVGWIRQPSGKGLEWLANIWWDDDKYYNPSLKNRLTISKDTSNSQAFLEITNVDTADTATYYCARISTGISSYYVMDAWGQGASVTVSS
VL: B1 VL with S32T, A51G, D52N, I96S, N97D
B3: chBDI-1E1 half body (antibody, V domains shown)
VH: EVKLQQSGDELVRPGASVKMSCKASGYTFTDYVMHWVKQSPGQGLEWIGTIIPLIDTTSYNQKFKGKATLTADKSSNTAYMELSRLTSEDSAVYYCARTSPYYYSSYDVMDAWGQGASVTVSS
VL: NIQLTQSPSLLSASVGDRVTLSCKGSQNINNYLAWYQQKLGEAPKLLIYKTNNLQTGIPSRFSGCGSGTDYTLTISSLHSEDLATYYCYQYDNGYTFGAGTKLELK
B4: chBFU-3E2-B9-B8 (antibody, human IgG1, V domains shown)
VH: EVQLQQSGPELQRPGASVKLSCKASGYTFTESYMYWVKQRPEQSLELIGRIDPEDGSTDYVEKFKNKATLTADTSSNTAYMQLSSLTSEDSATYFCARFGARSYFYPMDAWGQGTSVTVSS
VL: DTVLTQPPALAVSPGERVSISCRASESVSTLMHWYQQKPGQQPRLLIYGASNLESGVPARFSGSGSGTDFTLTIDPVEADDTATYFCQQSWNDPWTFGGGTKLELK
B5: chBFU-3E2 half-body (antibody, V domains shown)
VH: B4 VH
VL: B4 VL
B6: chBFU-11A8-D6-C3 (antibody, human IgG1, V domains shown)
VH: B4 VH with M34I, S91T
VL: B4 VL with P7S, A9T, S21P
B7: chBFU-11A8 half-body (antibody, V domains shown)
VH: B4 VH with M34I, S91T
VL: B4 VL with P7S, A9T, S21P
B8: 3E2.1_GS_9E10.1 (PR-1612500) (bispecific antibody, human IgG1, kappa, L234A L235A)
heavy: EVQLVQSGAEVKKPGSSVKVSCKASGYTFTESYMYWVKQAPGQGLELIGRIDPEDGSTDYVEKFKNKATLTADKSTSTAYMELSSLRSEDTAVYFCARFGARSYFYPMDAWGQGTTVTVSSGGGGSGGGGSEIQLVQSGSELKKPGASVKVSCKASGYTFTNYGMYWVKQAPGQGLEYMGWIDTETGRPTYADDFKGRFVFSLDTSVSTAYLQISSLKAEDTAVYFCARWSGDTTGIRGPWFAYWGQGTLVTVSSASTKGPSVFPLAPSSKSTSGGTAALGCLVKDYFPEPVTVSWNSGALTSGVHTFPAVLQSSGLYSLSSVVTVPSSSLGTQTYICNVNHKPSNTKVDKKVEPKSCDKTHTCPPCPAPEAAGGPSVFLFPPKPKDTLMISRTPEVTCVVVDVSHEDPEVKFNWYVDGVEVHNAKTKPREEQYNSTYRVVSVLTVLHQDWLNGKEYKCKVSNKALPAPIEKTISKAKGQPREPQVYTLPPSREEMTKNQVSLTCLVKGFYPSDIAVEWESNGQPENNYKTTPPVLDSDGSFFLYSKLTVDKSRWQQGNVFSCSVMHEALHNAYTQKSLSLSPGK
light: ETVLTQSPATLSLSPGERATLSCRASESVSTLMHWYQQKPGQQPRLLIYGASNLESGVPARFSGSGSGTDFTLTISSLEPEDFAVYFCQQSWNDPWTFGGGTKVEIKGGSGGGGSGGDIRMTQSPSSLSASVGDRVTIECLASEDIYSDLAWYQQKPGKSPKLLIYNANGLQNGVPSRFSGSGSGTDYSLTISSLQPEDVATYFCQQYNYFPGTFGQGTKLEIKRTVAAPSVFIFPPSDEQLKSGTASVVCLLNNFYPREAKVQWKVDNALQSGNSQESVTEQDSKDSTYSLSSTLTLSKADYEKHKVYACEVTHQGLSSPVTKSFNRGEC
B9: 3E2.1_GS_9E10.6 (PR-1612501) (bispecific antibody, human IgG1, kappa, L234A L235A)
heavy: EVQLVQSGAEVKKPGSSVKVSCKASGYTFTESYMYWVKQAPGQGLELIGRIDPEDGSTDYVEKFKNKATLTADKSTSTAYMELSSLRSEDTAVYFCARFGARSYFYPMDAWGQGTTVTVSSGGGGSGGGGSEVQLVQSGAEVKKPGSSVKVSCKASGYTFTNYGMYWVRQAPGQGLEWMGWIDTETGRPTYADDFKGRFTFTADKSTSTAYMELSSLRSEDTAVYYCARWSGDTTGIRGPWFAYWGQGTLVTVSSASTKGPSVFPLAPSSKSTSGGTAALGCLVKDYFPEPVTVSWNSGALTSGVHTFPAVLQSSGLYSLSSVVTVPSSSLGTQTYICNVNHKPSNTKVDKKVEPKSCDKTHTCPPCPAPEAAGGPSVFLFPPKPKDTLMISRTPEVTCVVVDVSHEDPEVKFNWYVDGVEVHNAKTKPREEQYNSTYRVVSVLTVLHQDWLNGKEYKCKVSNKALPAPIEKTISKAKGQPREPQVYTLPPSREEMTKNQVSLTCLVKGFYPSDIAVEWESNGQPENNYKTTPPVLDSDGSFFLYSKLTVDKSRWQQGNVFSCSVMHEALHNAYTQKSLSLSPGK
light: B8 light with E139T, S189T
B10: 3E2.1_GS_1B10.1 (PR-1612502) (bispecific antibody, human IgG1, kappa, L234A L235A)
heavy: EVQLVQSGAEVKKPGSSVKVSCKASGYTFTESYMYWVKQAPGQGLELIGRIDPEDGSTDYVEKFKNKATLTADKSTSTAYMELSSLRSEDTAVYFCARFGARSYFYPMDAWGQGTTVTVSSGGGGSGGGGSEVQLVESGGGLVQPGGSLRLSCAASGFSFSKYDMAWFRQAPGKGLEWVASITTSGVGTYYRDSVKGRFTVSRDNAKSTLYLQMNSLRAEDTAVYYCARGYGAMDAWGQGTTVTVSSASTKGPSVFPLAPSSKSTSGGTAALGCLVKDYFPEPVTVSWNSGALTSGVHTFPAVLQSSGLYSLSSVVTVPSSSLGTQTYICNVNHKPSNTKVDKKVEPKSCDKTHTCPPCPAPEAAGGPSVFLFPPKPKDTLMISRTPEVTCVVVDVSHEDPEVKFNWYVDGVEVHNAKTKPREEQYNSTYRVVSVLTVLHQDWLNGKEYKCKVSNKALPAPIEKTISKAKGQPREPQVYTLPPSREEMTKNQVSLTCLVKGFYPSDIAVEWESNGQPENNYKTTPPVLDSDGSFFLYSKLTVDKSRWQQGNVFSCSVMHEALHNAYTQKSLSLSPGK
light: ETVLTQSPATLSLSPGERATLSCRASESVSTLMHWYQQKPGQQPRLLIYGASNLESGVPARFSGSGSGTDFTLTISSLEPEDFAVYFCQQSWNDPWTFGGGTKVEIKGGSGGGGSGGDIQMTQSPSSLSASVGDRVTITCKASQDIDDYLSWYQQKPGKSPKLVIYAATRLADGVPSRFSGSGSGTDYTLTISSLQPEDFATYYCLQSSSTPWTFGGGTKVEIKRTVAAPSVFIFPPSDEQLKSGTASVVCLLNNFYPREAKVQWKVDNALQSGNSQESVTEQDSKDSTYSLSSTLTLSKADYEKHKVYACEVTHQGLSSPVTKSFNRGEC
B11: CL-34565_GS_CL-33675 (PR-1613183) (bispecific antibody, human IgG1, kappa, L234A L235A)
heavy: EVQLVQSGSELKKPGASVKVSCKASGYTFTDYGMYWVRQAPGQGLEWMGWIDTETGDPTYADDFKGRFVFSLDTSVSTAYLQISSLKAEDTAVYYCARTNYYYRNYMFYFDYWGQGTMVTVSSGGGGSGGGGSEVTLRESGPALVKPTQTLTLTCTFSGFSLSTYGMGVGWIRQPPGKALEWLANIWWDDDKYYNPSLKNRLTISKDTSKNQVVLTMTNMDPVDTATYYCARIESSGPKYSFDYWGQGTMVTVSSASTKGPSVFPLAPSSKSTSGGTAALGCLVKDYFPEPVTVSWNSGALTSGVHTFPAVLQSSGLYSLSSVVTVPSSSLGTQTYICNVNHKPSNTKVDKKVEPKSCDKTHTCPPCPAPEAAGGPSVFLFPPKPKDTLMISRTPEVTCVVVDVSHEDPEVKFNWYVDGVEVHNAKTKPREEQYNSTYRVVSVLTVLHQDWLNGKEYKCKVSNKALPAPIEKTISKAKGQPREPQVYTLPPSREEMTKNQVSLTCLVKGFYPSDIAVEWESNGQPENNYKTTPPVLDSDGSFFLYSKLTVDKSRWQQGNVFSCSVMHEALHNAYTQKSLSLSPGK
light: EIVLTQSPATLSLSPGERATLFCRASQSVSNHMHWYQQKPGQAPRLLIYGASILESGVPARFSGSGSGTDFTLTISSLEPEDFAVYYCQQSWYDPITFGQGTKLEIKGGSGGGGSGGEIVLTQSPGTLSLSPGERATLSCRASSGSIWYSFVSWYQQKPGQAPRLLIYADDQRASGIPDRFSGSGSGTDFTLTISRLEPEDFAVYYCQSYGINIDVVFGGGTKVEIKRTVAAPSVFIFPPSDEQLKSGTASVVCLLNNFYPREAKVQWKVDNALQSGNSQESVTEQDSKDSTYSLSSTLTLSKADYEKHKVYACEVTHQGLSSPVTKSFNRGEC

target: T1, recombinant human PDGF-BB (human, UniProt P01127 82-190, biotin-labelled in the binding and competition ELISAs (sites not given)); test: cell-based or functional assay
T1 sequence (P01127 82-190 limits assumed): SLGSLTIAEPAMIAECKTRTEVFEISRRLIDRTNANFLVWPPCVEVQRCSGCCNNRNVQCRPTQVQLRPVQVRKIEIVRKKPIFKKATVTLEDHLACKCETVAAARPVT

| Binder | huPDGF-BB Neutralization Potency (nM) in NIH-3T3 Cells |
| --- | --- |
| B1 | 1.84 nM |
| B2 | > 10 nM |
| B3 | > 10 nM |
| B4 | 0.099 nM |
| B5 | 2.49 nM |
| B6 | 0.086 nM |
| B7 | > 10 nM |

target: T1, recombinant human PDGF-BB; test: Biacore SPR, antibody captured by anti-human Fc, PDGF-BB injected
Procedure: For example, approximately 9000 RU of goat anti-human Fc specific polyclonal antibody (Thermo Fisher Scientific Inc., Rockford, Ill.) diluted in 10 mM sodium acetate (pH 4.5) is directly immobilized across a CM5 research grade biosensor chip using a standard amine coupling kit according to manufacturer's instructions and procedures at 25 μg/ml. Unreacted moieties on the biosensor surface were blocked with ethanolamine. For kinetic analysis, rate equations derived from the 1:1 Langmuir binding model were fitted simultaneously to multiple antigen injections (using global fit analysis) with the use of Scrubber 2 (BioLogic Software), Biacore Biaevaluation 4.0.1 software or Biacore T100 Evaluation software. Purified antibodies or DVD-Ig molecules were diluted in running buffer for capture across goat anti-human Fc reaction surfaces. Antibodies or DVD-Ig molecules to be captured as a ligand (1 μg/ml) were injected over reaction matrices at a flow rate of 10 μl/minute. During the assay, all measurements were referenced against the capture surface alone (i.e., with no captured antibody or DVD-Ig molecule). […] The equilibrium dissociation constant KD (M) of the reaction between antibodies and the target antigen was then calculated from the kinetic rate constants by the following formula: KD=Koff/Kₒₙ. Binding was recorded as a function of time and kinetic rate constants were calculated.

| Binder | Kd | koff | kon |
| --- | --- | --- | --- |
| B4 | ≤ 0.019 nM | 0.00019 s⁻¹ | ≥ 1e+07 M⁻¹ s⁻¹ |
| B6 | ≤ 0.015 nM | 0.00015 s⁻¹ | ≥ 1e+07 M⁻¹ s⁻¹ |

target: recombinant human PDGF-BB (human, UniProt P01127 82-190); test: cell-based or functional assay
Sequence (P01127 82-190 limits assumed): as above

| Binder | Potency IC50 (nM), NIH-3T3 hPDGF-BB (proliferation) |
| --- | --- |
| B8 | 0.394 nM |
| B9 | 0.377 nM |
| B10 | 0.187 nM |
| B11 | 0.052 nM |

target: recombinant human VEGF165 (human, UniProt P15692 207-395); test: cell-based or functional assay
Sequence (P15692 other isoform, or with tags, fused parts or gaps limits assumed): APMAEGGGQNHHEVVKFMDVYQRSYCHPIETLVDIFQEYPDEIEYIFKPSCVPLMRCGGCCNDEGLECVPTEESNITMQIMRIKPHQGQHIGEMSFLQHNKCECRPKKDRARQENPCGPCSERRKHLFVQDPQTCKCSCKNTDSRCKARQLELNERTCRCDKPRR

| Binder | Potency IC50 (nM), HMVEC-d hVEGF165 (proliferation) |
| --- | --- |
| B8 | 0.133 nM |
| B9 | 0.188 nM |
| B10 | 1.78 nM |
| B11 | 0.059 nM |
